Source: article PMC4277747 (Journal of the American Chemical Society, 2014)
Like-named read-outs stand apart in the source and are kept apart here.

Tests used:
Experiment in all cases: AUC
AUC [1] = target: the molecule itself
AUC [2] = target: the molecule itself; remark: listed apart in the source
AUC [3] = target: the molecule itself; remark: listed apart in the source

Protein | MW (global fit)/MW (calc., expected dimer mass) (AUC [1]) | stoichiometry N (AUC [2]) | stoichiometry N (AUC [3])
KEEKQIEKELKQIEKELQAIEWRLAQLRKRLQALRKRKAQKRE (designed binder) [APHi fused to maltose binding protein (MBP)] | 1.7 | > 2 | –
KRKKQKRKRAKQLRKRLQALEWQLAQIRKELQAAEKEEAQIEE (designed binder) [APHiii (APH3) fused to maltose binding protein (MBP)] | 0.94 | 2 | –
KQLKQIEKRLKQIEKRLQAKEWEKAQLRKELQALRKKLAQLRE (designed binder) [APHvi (APH4) fused to maltose binding protein (MBP)] | 0.96 | 2 | –
KEKKQLRKELKQLEKELQALRWRLAQIEKRLQAIRKRLAQKEE (designed binder) [APHiv fused to maltose binding protein (MBP)] | 1.23 | > 2 | –
KQLEKELKQLEKELQAIEKQLAQLQWKAQARKKKLAQLKKKLQA (designed binder) [APH fused to maltose binding protein (MBP)] | – | – | 2
